Reference: patent US20250243243A1, “DISRUPTION OF SONIC HEDGEHOG-SURF4 INTERACTION FOR CANCER TREATMENT” (The Hong Kong University of Science and Technology, priority 2022, published 2025)

Molecular target: ShhN^1-198-HA (mouse) (UniProt Q62226)
Experiment: anti-HA immunoprecipitation from HEK293T lysate, label-free quantitative mass spectrometry; 1 unique peptide; Control Group, IGF2 Group and Abundance Ratio not given

Chain of ShhN^1-198-HA (mouse) (Q62226 25-198): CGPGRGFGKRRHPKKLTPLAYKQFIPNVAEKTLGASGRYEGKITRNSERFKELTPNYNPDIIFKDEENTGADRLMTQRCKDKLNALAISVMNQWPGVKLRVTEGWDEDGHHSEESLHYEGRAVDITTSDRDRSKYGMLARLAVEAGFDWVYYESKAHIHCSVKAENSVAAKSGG

For VPS51 (from UniProt Q9UID3), the abundance in The ShhN Group was 45400.
For BHMT (from UniProt Q93088) (enzyme), the abundance in The ShhN Group was 2060.
PPIB (from UniProt P23284) (enzyme) showed an abundance in The ShhN Group of 8940.
Work on GRIA1 (from UniProt P42261) (receptor) yielded an abundance in The ShhN Group of 19800.
